Test [1] addresses IgG. The test is described as follows: sandwich liposome assay: IgG at 10 nM captured by DNA aptamer on silicon supporter, FcIII peptide liposomes bound, washed, UV-triggered release of pH 8.5 buffer, change of surface potential read (SD 0.62 mV).
Test [2] has as its target IgG. Description: sandwich liposome assay: IgG at 50 nM captured by DNA aptamer on silicon supporter, FcIII peptide liposomes bound, washed, UV-triggered release of pH 8.5 buffer, change of surface potential read (SD 2.87 mV).

Turning to FcIII peptide, the surface potential variation in the test with IgG [1] is -3.75 mV; with IgG [2], -10.6 mV.

Source of the values: patent publication US20210396744A1.
